# Assay results: US20100204091A1 (YEDA RESEARCH AND DEVELOPMENT, published 2010)
# No end group written: not given here.
# T1: FLAG tagged TRAF2 (UniProt Q12933 1-501)
# T1 construct: For in vitro assays purified on anti-FLAG M2 beads and eluted with FLAG peptide; also called FLAG-TRAF2
# T1 sequence (looked up): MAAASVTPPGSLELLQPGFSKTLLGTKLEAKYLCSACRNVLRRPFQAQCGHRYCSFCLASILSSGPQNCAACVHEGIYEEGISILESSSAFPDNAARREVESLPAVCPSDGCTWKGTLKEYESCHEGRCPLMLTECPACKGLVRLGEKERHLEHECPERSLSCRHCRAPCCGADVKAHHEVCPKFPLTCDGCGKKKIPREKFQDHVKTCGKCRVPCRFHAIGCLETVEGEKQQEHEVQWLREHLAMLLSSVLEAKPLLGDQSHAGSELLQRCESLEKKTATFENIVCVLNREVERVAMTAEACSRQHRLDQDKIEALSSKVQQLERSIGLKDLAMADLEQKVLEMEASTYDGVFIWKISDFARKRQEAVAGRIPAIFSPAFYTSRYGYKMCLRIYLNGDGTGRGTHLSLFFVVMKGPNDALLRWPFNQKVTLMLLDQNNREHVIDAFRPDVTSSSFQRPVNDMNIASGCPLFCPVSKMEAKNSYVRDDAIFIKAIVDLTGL
# Columns and labels:
# FLAG tagged TRAF2 [1] = target: T1, FLAG tagged TRAF2; assay: in vitro incubation of eluted FLAG TRAF2 with bacterial GST tagged SIVA2, anti-FLAG IP, anti SIVA blot
# Experimental: (§1) In order to explore whether TRAF2 binds to SIVA2, FLAG tagged TRAF2 was immuno-precipitated from transfected […] cells using anti-FLAG M2 beads. TRAF2 was eluted from the beads using FLAG peptide. The eluted FLAG tagged TRAF2 was incubated with recombinant (bacterially expressed) GST tagged SIVA2 or GST tagged ring finger mutant SIVA2 at 30° C. for one hour in a volume of 50 μl of buffer (30 mM HEPES, pH 7.6, 5 mM MgCl2, 0.2 mM DTT). Next, the binding mix was diluted to 1 ml to attain the following composition −30 mM HEPES, 5 mM MgCl2, 0.2 mM DTT, 150 mM NaCl, 1% Triton X100 and 1 mM EDTA. Immunoprecipitation was carried out with anti-FLAG for TRAF2 and Western blotting analysis was carried out with anti SIVA to detect coprecipitating SIVA. […] The latter was confirmed in the following experiment. HEK 293T cells were co-transfected with 12 ug of HIS-SIVA2 or deletions of SIVA2 lacking the ring finger (SIVA2 1-58 and SIVA 1-81) and FLAG-TRAF2 by calcium phosphate method. 24 hours post transfection; cells were harvested and lysed in 1% Triton containing lysis buffer. TRAF2 was immunoprecipitated using anti FLAG-M2 beads and coprecipitated SIVA2 was probed by Western blotting using anti HIS antibody. Total lysis in FIG. 11D show the expression levels of the proteins. […] (FIG. 11D).
# [2] = target: T2, NF-κB-inducing kinase, NIK, (MAP3K14) (human, UniProt Q99558 1-947); assay: yeast two-hybrid, human bone-marrow library, NIK as bait
# T2 construct: in yeast two-hybrid used as bait fusion; also called myc-NIK; wild type NIK
# Experimental: Yeast two-hybrid screening: The system used for screening was the Matchmaker version III (clontech). The prey was pre-transformed human bone marrow library (cat# HY4053AH) that offers high stringent quadruple drop out (QDO) selection along with a-gal assay. Clones growing on plates without LEU, TRP, HIS and ADE were reconfirmed by a-gal assay, which is much more specific than the usual, often leaky, b-gal assay. Plasmids of the positive clones were prepared as follows. Single clones were inoculated into QDO liquid broth and grown overnight at 37° C. Cells were pelleted at 10,000 g and resuspended in 200 μl of buffer containing 2% Triton X-100, 1% SDS, 100 mM NaCl, 10 mM Tris pH8.0, and 1 mM EDTA. The lysates were vortexed for 2 min after adding 200 μl of phenol: chloroform: isoamyl alcohol (25:24:1) and 0.3 g of 600 microns acid washed glass beads (Sigma). Supernatant was collected by centrifugation at 12,000 g and the DNA was precipitated by sodium acetate/ethanol precipitation method (Sambrook et al., 1989). Encoded inserts from the plasmids were amplified by PCR with the primers specific for the library vector pACT2. For further biochemical analysis of individual clones, the amplicons were directly cloned into the N-terminally HIS tagged mammalian expression vector pcDNA3.1 (Invitrogen).
# [3] = target: T2, NF-κB-inducing kinase, NIK, (MAP3K14); assay: co-immunoprecipitation from transfected cells (deletion analysis)
# FLAG tagged TRAF2 [4] = target: T1, FLAG tagged TRAF2; assay: co-immunoprecipitation with anti FLAG-M2 beads from transfected HEK 293T cells, anti HIS blot
# Experimental: as §1
# T2 sequence (Q99558 whole entry, the tested form may be a part): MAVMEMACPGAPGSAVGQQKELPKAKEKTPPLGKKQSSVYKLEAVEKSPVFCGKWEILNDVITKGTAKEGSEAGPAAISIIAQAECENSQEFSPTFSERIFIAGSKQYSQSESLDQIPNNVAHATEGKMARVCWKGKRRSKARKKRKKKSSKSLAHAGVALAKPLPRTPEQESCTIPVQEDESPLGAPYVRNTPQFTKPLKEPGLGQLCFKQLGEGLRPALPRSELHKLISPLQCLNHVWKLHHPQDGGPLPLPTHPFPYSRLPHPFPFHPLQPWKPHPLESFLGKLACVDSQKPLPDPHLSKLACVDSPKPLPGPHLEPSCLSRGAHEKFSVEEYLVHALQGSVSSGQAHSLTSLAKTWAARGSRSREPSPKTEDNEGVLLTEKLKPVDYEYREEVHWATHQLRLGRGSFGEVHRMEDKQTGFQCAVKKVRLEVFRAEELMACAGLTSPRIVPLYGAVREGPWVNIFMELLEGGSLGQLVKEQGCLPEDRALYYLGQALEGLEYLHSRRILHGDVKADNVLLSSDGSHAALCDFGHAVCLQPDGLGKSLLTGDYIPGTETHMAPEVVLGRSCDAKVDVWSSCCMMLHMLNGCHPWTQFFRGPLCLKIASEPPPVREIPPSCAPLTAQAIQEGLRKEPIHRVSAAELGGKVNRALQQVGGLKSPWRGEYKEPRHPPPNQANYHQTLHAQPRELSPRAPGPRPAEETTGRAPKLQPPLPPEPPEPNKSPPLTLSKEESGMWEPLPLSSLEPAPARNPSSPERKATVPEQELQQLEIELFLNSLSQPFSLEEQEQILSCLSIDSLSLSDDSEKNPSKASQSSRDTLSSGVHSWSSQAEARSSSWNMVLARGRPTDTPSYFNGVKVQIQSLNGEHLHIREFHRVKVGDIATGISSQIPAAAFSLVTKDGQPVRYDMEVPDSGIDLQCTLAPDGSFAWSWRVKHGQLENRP
binder,measurement,setting,value
"GST-SIVA2 (bacterially expressed GST tagged SIVA2) (other, Cloned into pGEX and expressed in BL-21 cells; also called recombinant GST-SIVA; recombinant SIVA2; not shown: glutathione S-transferase tag of the pGEX vector) MPKRSCPFADVAPLQLKVRVSQRELSRGVCAERYSQEVFDPSGVASIACSSCVRAVDGKAVCGQCERALCGQCVRTCWGCGSVACTLCGLVDCSDMYEKVLCTSCAMFET",binding result,FLAG tagged TRAF2 [1],binds
"SIVA-C (C-terminal part of SIVA, amino acids 123-175 in SIVA1 or 58-110 in SIVA2) (other, Prey fragment from a human bone marrow two-hybrid library; in mammalian cells HIS tagged; also called SIVA-C terminus; C-terminal fragment of SIVA) KAVCGQCERALCGQCVRTCWGCGSVACTLCGLVDCSDMYEKVLCTSCAMFET",binding result,[2],binds
"SIVA2 1-58 (other, cysteine pairing not given here; also: His tag, sequence and position not given here, HIS tagged deletion mutant lacking ring and zinc fingers; also called SIVA 1-58; SIVA2 N-terminus) MPKRSCPFADVAPLQLKVRVSQRELSRGVCAERYSQEVFDPSGVASIACSSCVRAVDG",binding result,[3],no binding
same,binding result,FLAG tagged TRAF2 [4],no binding
